Test results: US6132722A, “Recombinant antibody-enzyme fusion proteins” (Bristol-Myers Squibb Company, priority 1998, dated 2000)

Legend:
[1] = Michaelis-Menten kinetic analysis of bL activity with nitrocefin as substrate; type: biochemical
Source text: Enzymatic activity assays of the bL portion of L49-sFv-bL were undertaken using nitrocefin as the enzyme substrate (Table 1). […] Thus, both the binding of the L49 antibody and enzymatic activity of the E. cloacae r2-1 bL were preserved in the fusion protein.

3677 melanoma cells = test: In vitro cytotoxicity, [3H]thymidine incorporation; type: cell-based, human
Description: In Vitro Cytotoxicity. 3677 melanoma cells were plated into 96-well microliter plates (10^4 cells/well in 100 μL of Iscove's Modified Dulbecco's Medium (IMDM) with 10% fetal bovine serum, penicillin (60 μg/ml), and streptomycin (100 μg/ml) and allowed to adhere overnight. For blocking experiments, the cells were incubated with unconjugated L49 at 1 μM for 30 min. prior to treatment with the L49 conjugates. The cells were treated with L49-sFv-bL or L49 Fab'-bL at 10 nM. After 30 min. at 4° C., the plates were washed three times with antibiotic-free RPMI 1640 media (Gibco) with 10% fetal bovine serum, and then varying concentrations of CCM (FIG. 1) were added. CCM and PDM were also added to cells treated with media alone. After 1 h at 37° C., cells were washed three times with IMDM and incubated approximately 18 h at 37° C. The cells were then pulsed for 12 h with [^3 H] thymidine (1 μCi/well) at 37° C., detached by freezing at -20° C. and thawing, and harvested onto glass fiber filter mats using a 96-well harvester (Wallac, Gaithersburg, Md.). Radioactivity was counted using a LKB Wallac β-plate counter.
In Vitro Cytotoxicity. […] Radioactivity was counted using a LKB Wallac β-plate counter.
The cytotoxic effects of L49-sFv-bL in combination with CCM were determined on 3677 human melanoma cells, which express the p97 antigen. […]

[2] = Clearance of conjugate from the blood of nude mice; type: in vivo
Description: FIGS. 9A and 9B depict pharmacokinetics of L49-sFv-bL in nude mice (3 animals/group). L49-sFv-bL was injected intravenously, tissues were removed and extracted at the indicated times, and the β-lactamase activity was determined using nitrocefin as a substrate. FIG. 9A depicts clearance of L49-sFv-bL from the blood. Injected dose was 4 mg/kg. FIG. 9B depicts L49-sFv-bL levels in subcutaneous 3677 melanoma tumors and in normal tissues. Injected dose was 1 mg/kg.
Conjugate Localization. Subcutaneous 3677 melanoma tumors were established in female athymic nu/nu mice (8-12 weeks old, Harlan Sprague-Dawley, Indianapolis, Ind.) by transplanting tumors that had been previously passaged as previously described (Kerr et al., Cancer Res., 55:3558-3563 (1995)). Tumor bearing mice were injected i.v. with L49-sFv-bL (1 or 4 mg mAb component/kg) or with L49-Fab'-bL (1.8 mg mAb component/kg). At various time intervals, the mice were anesthetized, bled through the orbital plexus, and sacrificed. Tissues were removed and homogenized in PBS containing 15 μg/ml aprotinin (2 mL/g tissue). To the homogenate was added 50 mM sodium phosphate containing 100 mM NaCl at pH 11.2 (10 ml/g tissue), and the suspension was mixed. After 20 min at room temperature, 3M sodium phosphate at pH 7.0 was added (2 ml/g tissue), and the mixture was mixed and centrifuged.
Quantification of conjugate concentrations was accomplished using a direct enzyme immunoassay. Polystyrene 96-well microtiter plates were coated with an affinity-purified rabbit polyclonal antisera to wild type E. cloacae bL (1 μg/ml), and were then blocked with specimen diluent (Genetic Systems Corp.). Serially diluted tissue extracts or purified samples (L49-sFv-bL as a standard for the fusion protein samples, L49-Fab'-bL as a standard for the L49-Fab'-bL samples) were added to the wells and allowed to bind for 3 h at room temperature. The plates were washed and developed by the addition of 0.1 ml of nitrocefin (O'Callaghan et al., Antimicrobial Agents and Chemotherapy, 1:283-288 (1972)) at 0.1 mM in PBS containing 1% dimethylformamide. Absorbance measurements were read in an ELISA plate reader using a 490 nm filter with 630 nm as the reference wavelength.
In Vivo Localization. Biodistribution studies of L49-sFv-bL and L49-Fab'-bL were carried out in nude mice bearing subcutaneous (s.c.) 3677 melanoma tumor xenografts. The conjugates were injected i.v., and at various time points tissues were removed and extracted under alkaline conditions to disrupt antigen-antibody interactions. The samples were then trapped a polyclonal antiserum to bL, and bL activity was measured using nitrocefin as a colorimetric indicator (O'Callaghan et al, Antimicrobial Agents and Chemotherapy, 1:283-288 (1972)).

B1: L49-sFv-bL: recombinant fusion protein: L49 anti-p97 single-chain Fv (VH-218 linker-VL) fused to r2-1 mutant E. cloacae β-lactamase, SEQ ID NO: 20 (protein)
chain: MKYLLPTAAAGLLLLAAQPAMAEVQLQESGPSLVKPSQTLSLTCSVTGDSITSGYWNWIRKFPGNKLEYMGYISDSGITYYNPSLKSRISITRDTSKNQYYLQLNFVTAEDTATYNCARRTLATYYAMDYWGQGTSVTVSSGSTSGSGKPGSGEGSTKGDFVMTQTPLSLPVSLGDQASISCRASQSLVHSNGNTYLHWYLQKPGQSPKLLIYRVSNRFSGVPDRFSGSGSGTDFTLKISRVEAEDLGVYFCSQSTHVPPTFGGGTKLEIKRTPVSEKQLAEVVANTITPLMKAQSVPGMAVAVIYQGKPHYYTFGKADIAANKPVTPQTLFELGSISKTFTGVLGGDAIARGEISLDDAVTRYWPQLTGKQWQGIRMLDLATYTAGGLPLQVPDEVTDNASLLRFYQNWQPQWKPGTTRLYANASIGLFGALAVKPSGMPYEQAMTTRVLKPLKLDHTWINVPKAEEAHYAWGYRDGKAVRVSPGMLDAQAYGVKTNVQDMANWVMANMAPENVADASLKQGIALAQSRYWRIGSMYQGLGWEMLNWPVEANTVVETSFGNVALAPLPVAEVNPPAPPVKASWVHKTGSTGGFGSYVAFIPEKQIGIVMLANTSYPNPARVEAAYHILEALQTSEFE
[1]
  Km: 19 µM
  enzymatic activity relative to the mutant bL enzyme: retained the full enzymatic activity
  kcat: 232 s⁻¹
3677 melanoma cells; conjugate 10 nM, washed, then CCM 1 h
  cytotoxic activity of conjugate + CCM combination: equivalent in activity to PDM
3677 melanoma cells; unconjugated L49 1 μM before the fusion protein
  activation of CCM on cells previously saturated with L49 mAb: did not activate CCM
[2]; blood, i.v., 4 mg/kg
  initial clearance half life t1/2 α: 0.3 h
  terminal clearance half life t1/2 β: 2.5 h
[2]; i.v., nude mice
  clearance from the blood: cleared very rapidly
[2]; within 24 h of conjugate administration
  reduction of blood levels: 10^4
